Experimental data reported in patent US20170119861.

Tests used:
[1] = target: Aβ40 high molecular weight fibrils, P05067
[2] = target: Aβ42 fibrils, P05067
[3] = target: Aβ42 oligomers, P05067
[4] = target: synthetic Aβ40 peptide, P05067
[5] = target: synthetic Aβ42 peptide, P05067
synthetic Aβ42 peptide, P05067, sequence (P05067 whole entry, looked up, tested part not stated): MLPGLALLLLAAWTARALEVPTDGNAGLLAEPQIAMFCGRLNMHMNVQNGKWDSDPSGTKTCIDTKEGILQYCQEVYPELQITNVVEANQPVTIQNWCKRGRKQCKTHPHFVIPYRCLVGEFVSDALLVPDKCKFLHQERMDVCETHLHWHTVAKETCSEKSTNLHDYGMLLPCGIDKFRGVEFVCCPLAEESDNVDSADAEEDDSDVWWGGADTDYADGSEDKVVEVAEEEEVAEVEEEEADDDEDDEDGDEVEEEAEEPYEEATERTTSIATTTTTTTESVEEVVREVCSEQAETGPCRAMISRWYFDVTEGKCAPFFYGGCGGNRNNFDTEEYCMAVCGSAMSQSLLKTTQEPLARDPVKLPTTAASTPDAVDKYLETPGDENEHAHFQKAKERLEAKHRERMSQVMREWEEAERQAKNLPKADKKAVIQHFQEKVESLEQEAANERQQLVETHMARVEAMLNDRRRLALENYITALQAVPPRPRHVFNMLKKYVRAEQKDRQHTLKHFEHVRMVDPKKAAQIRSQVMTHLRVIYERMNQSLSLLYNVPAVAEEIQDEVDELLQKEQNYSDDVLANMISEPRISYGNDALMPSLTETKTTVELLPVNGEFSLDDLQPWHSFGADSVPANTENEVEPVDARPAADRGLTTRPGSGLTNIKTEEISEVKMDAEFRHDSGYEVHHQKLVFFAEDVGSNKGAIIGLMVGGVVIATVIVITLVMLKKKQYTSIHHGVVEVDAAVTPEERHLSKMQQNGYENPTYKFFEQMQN

synthetic Aβ40 peptide, P05067, sequence (P05067 whole entry, looked up, tested part not stated): as above
Aβ40 high molecular weight fibrils, P05067, sequence (P05067 whole entry, looked up): as the sequence (P05067 whole entry, looked up, tested part not stated) above
Aβ42 fibrils, P05067, sequence (P05067 whole entry, looked up): as the sequence (P05067 whole entry, looked up, tested part not stated) above
Aβ42 oligomers, P05067, sequence (P05067 whole entry, looked up): as the sequence (P05067 whole entry, looked up, tested part not stated) above

B1: protective protein/cathepsin A (PPCA) (protein)
chain: APDQDEIQRLPGLAKQPSFRQYSGYLKGSGSKHLHYWFVESQKDPENSPVVLWLNGGPGCSSLDGLLTEHGPFLVQPDGVTLEYNPYSWNLIANVLYLESPAGVGFSYSDDKFYATNDTEVAQSNFEALQDFFRLFPEYKNNKLFLTGESYAGIYIPTLAVLVMQDPSMNLQGLAVGNGLSSYEQNDNSLVYFAYYHGLLGNRLWSSLQTHCCSQNKCNFYDNKDLECVTNLQEVARIVGNSGLNIYNLYAPCAGGVPSHFRYEKDTVVVQDLGNIFTRLPLKRMWHQALLRSGDKVRMDPPCTNTTAASTYLNNPYVRKALNIPEQLPQWDMCNFLVNLQYRRLYRSMNSQYLKLLSSQKYQILLYNGDVDMACNFMGDEWFVDSLNQKMEVQRRPWLVKYGDSGEQIAGFVKEFSHIAFLTIKGAGHMVPTDKPLAAFTMFSRFLNKQPY
western blot of Aβ40 co-incubated with Cath A for up to 9 days during fibril formation [1]: Cath A significantly prevents formation of high molecular weight fibrils | western blot (E610) of day 9 Aβ42 fibrils after overnight treatment with 90 ng enzyme [2]: resulted in reduction/degradation of the fibril smear as well as degradation of oligomer species (line 4 compared to line 1) | western blot (A11) of day 9 Aβ42 oligomers after overnight treatment with 90 ng enzyme [3]: resulted in degradation of the lowest oligomer band (line 4) | ELISA with C-terminal capture antibody after 2 h incubation of Aβ40 with varying Cath A concentrations [4]: progressively reduced binding of Aβ40 peptide to C-terminal capture antibody with increasing concentration of Cath A | THT aggregation of Aβ40 after pre-incubation with Cath A for up to two hours [4]: Aβ40 peptide did not aggregate after pre-incubation with Cath A | THT aggregation of Aβ40 with simultaneous incubation with Cath A [4]: aggregation of Aβ40 amyloid is not affected by Cath A, in applied experimental settings, even when high concentration of enzyme is used | Aβ42 aggregation by THT assay and western blot [5]: PPCA can efficiently prevent formation of Aβ42 amyloid species | human Aβ42 specific ELISA signal after treatment with 90 ng cathepsin A (0-120 min, 37° C., pH 5.0) [5]: a loss of fluorescent signal already within first 10 min of treatment
